# Target: Human immunoglobulin G (IgG) (human)
# Assay: LSPR
substance,measurement,value
Bovine serum albumin (from UniProt P02769 25-607) (natural protein),LLSPR wavelength shift,< 1 nm
